Reference: patent publication US20040229289A1, “Antigen binding peptides (abtides) from peptide libraries” (Cytogen Corporation, priority 1994, published 2004)
Where a SMILES comes first, the peptide text is derived from it. Where no end group is shown, it is not given here. The star is where a group is joined. DTPA = O=C(O)CN(CCN(CC(=O)O)CC(=O)O)CCN(CC(=O)O)CC(=O)*

Key:
[1] = system: human prostate carcinoma LNCaP xenograft tumors; assay: in vivo; design: species or system SCID mice; conditions: mouse, iv
Experimental: Male SCID mice (C.B-17/Icr Tac—SCID mice) were purchased from Fox Chase (Philadelphia, Pa.) or. Taconic Farms (Germantown, N.Y.), were housed in sterilized cages with filter bonnets, and were given autoclaved laboratory rodent chow (Purina, St. Louis, Mo.), and filtered tap water ad libitum.
1×10^7 cells of the human prostate tumor line LNCaP (Horoszewicz et al., 1987, Anticancer Res. 7:927-936) were injected subcutaneously (s.c.) into the left rear flank of the mice. The cells were growing in exponential phase before harvesting and had been resuspended in 0.2 mL of sterile saline. Tumors were grown in the mice for 2-3 months before abtides were injected into the mice.
For biodistribution studies, abtides were modified at their amino termini with the chelator diethylene-triamine-pentaacetic acid anhydride (DTPA-A) (Sigma, St. Louis, Mo.). Approximately 2 mg of each abtide was initially dissolved in an appropriate volume of 0.1% acetic acid and then 1 mL of 0.1 M sodium bicarbonate, pH 8.0, was added. Two mg of DTPA-A was suspended in 100 AL of dimethylsulfoxide (DMSO), and 10 μL of the abtide solution added to this DTPA-A suspension. […]
In one experiment, abtide clone 14-DPTA-^111In (see Table 2) was injected intravenously (i.v.) into two groups of mice bearing measurable LNCaP xenografts. […] Thus, the total injected dose of radioactivity was about 120-140×10^6 cpm.
The first group of mice was sacrificed 2 hours after injection of the abtide and tissues were dissected for analysis. […] Dissected tissues were weighed and the amount of ^111In in them was determined by gamma counting. The cpm per gram of each tissue was calculated by dividing the cpm of ^111In found in the tissue by the weight in grams of the tissue. […]
In another experiment, abtide clone 17-DPTA-^111In (see Table 2) was injected intravenously into four SCID mice bearing measurable LNCaP xenografts. […] Thus, the total injected dose of radioactivity was about 100-110×10^6 cpm. […]

[2] = system: monoclonal antibody 7E11-C5; assay: ELISA: biotinylated monoclonal antibody 7E11-C5 binding to immobilized mimetope peptide 7E11-9.5; design: species or system murine; conditions: wells coated with 5 μg/mL mimetope; antibody serially diluted from 29 μg/mL; FIG. 2
Experimental: First the mimetope peptide 7 μl-9.5 was tested for its ability to bind to the monoclonal antibody 7E11-C5. Ninety-six well plates (Immunlon 4, Dynatech, Alexandria, Va.) were coated with 50 μL of a 5 μg/mL solution of the mimetope peptide 7 μl-9.5 and incubated overnight at room temperature. Following incubation, the wells were washed 4 times with 1% BSA in PBS. Biotinylated monoclonal antibody 7E11-C5 was serially diluted with PBS beginning with a concentration of 29 μg/mL and various amounts of the monoclonal antibody were added to the wells that had been coated with the mimetope peptide. After incubating for 1 hour at room temperature, the wells were washed four times with 1% BSA in PBS and 2 times with PBS. Then, 100 AL of a 1:2000 dilution of Extravidin-Alkaline Phosphatase (4,250 units/mL) (Sigma, St. Louis, Mo.) in PBS was added to each well. After an hour, the plate was again washed 4 times with PBS and 100 μL of a 1 mg/mL solution of the enzyme substrate p-nitrophenyl phosphate was added to each well. Color was allowed to develop for 15 minutes to 1 hour and absorbance was read at 405 nm.

Compound: CC[C@H](C)[C@H](NC(=O)[C@H](Cc1ccccc1)NC(=O)[C@@H](NC(=O)[C@@H]1CCCN1C(=O)[C@@H](NC(=O)[C@H](Cc1ccccc1)NC(=O)CNC(=O)[C@@H]1CCCN1C(=O)[C@@H](NC(=O)[C@H](Cc1ccc(O)cc1)NC(=O)[C@H](C)NC(=O)[C@H](CC(N)=O)NC(=O)[C@H](Cc1ccc(O)cc1)NC(=O)[C@H](CC(C)C)NC(=O)[C@H](CC(C)C)NC(=O)[C@H](Cc1ccccc1)NC(=O)[C@H](CCCNC(=N)N)NC(=O)CNC(=O)[C@H](Cc1ccccc1)NC(=O)[C@H](CC(=O)O)NC(=O)[C@H](CC(C)C)NC(=O)[C@H](CC(N)=O)NC(=O)[C@H](CCCNC(=N)N)NC(=O)[C@H](CO)NC(=O)[C@H](CC(C)C)NC(=O)[C@H](CC(=O)O)NC(=O)CN(CCN(CCN(CC(=O)O)CC(=O)O)CC(=O)O)CC(=O)O)C(C)C)[C@@H](C)O)[C@@H](C)O)C(=O)N[C@@H](CO)C(=O)N[C@@H](CC(C)C)C(=O)N[C@H](C(=O)N[C@@H](C)C(=O)N[C@@H](CCC(=O)O)C(=O)N[C@@H](Cc1c[nH]cn1)C(=O)N[C@@H](CC(C)C)C(=O)N[C@@H](CO)C(=O)N[C@@H](CO)C(=O)N1CCC[C@H]1C(=O)N[C@@H](CCCCN)C(=O)NCC(N)=O)[C@@H](C)O [abtide clone 17-DPTA-^111In, metal not drawn] ({DTPA}-DLSRNLDFGRFLLYNAYVPGFTPTFISLTAEHLSSPKG-NH2)
- localization to LNCaP xenograft tumors [1]: localized to LNCaP xenograft tumors

Compound: LYANPGMYSRLHSPA (not fully specified (N-terminus, C-terminus)) [7E11-9.5]
- binding of monoclonal antibody 7E11-C5 to mimetope (absorbance at 405 nm) [2]: binds to the synthesized mimetope 7E11-9.5 in a concentration dependent manner
